Data from article PMC12055985 (Nature Communications, 2025).

B1: HSV-2 gD (aa1-275) with C-terminal His tag (domain or fragment)
chain: KYALADPSLKMADPNRFRGKNLPVLDQLTDPPGVKRVYHIQPSLEDPFQPPSIPITVYYAVLERACRSVLLHAPSEAPQIVRGASDEARKHTYNLTIAWYRMGDNCAIPITVMEYTECPYNKSLGVCPIRTQPRWSYYDSFSAVSEDNLGFLMHAPAFETAGTYLRLVKINDWTEITQFILEHRARASCKYALPLRIPPAACLTSKAYQQGVTVDSIGMLPRFIPENQRTVALYSLKIAGWHGPKPPYTSTLLPPELSDTTNATQPELVPEDPED
B2: HSV-1 gD (aa1-275) with C-terminal His tag (domain or fragment)
chain: KYALADASLKMADPNRFRGKDLPVLDQLTDPPGVRRVYHIQAGLPDPFQPPSLPITVYYAVLERACRSVLLNAPSEAPQIVRGASEDVRKQPYNLTIAWFRMGGNCAIPITVMEYTECSYNKSLGACPIRTQPRWNYYDSFSAVSEDNLGFLMHAPAFETAGTYLRLVKINDWTEITQFILEHRAKGSCKYALPLRIPPSACLSPQAYQQGVTVDSIGMLPRFIPENQRTVAVYSLKIAGWHGPKAPYTSTLLPPELSETPNATQPELAPEDPED

Legend:
Nb32-Fc = Nb32-Fc (camel); assay: SPR
Nb14-Fc = Nb14-Fc (camel); assay: SPR

| Binder | Kd (Nb32-Fc) | Kd (Nb14-Fc) |
| --- | --- | --- |
| B1 | 0.0434 nM | 0.0831 nM |
| B2 | 0.0367 nM | 1.14 nM |
